Data taken from US20030211992A1 (published 2003).
Like-named read-outs stand apart in the source and are kept apart here. Positions of bridges follow the written chain, without caps; N, C: chain ends. No end group written: not given here.

What was measured:
human IGFBP-1 [1] = target: T1, human IGFBP-1 (human, UniProt P08833 26-259); assay: competitive phage ELISA; the reference itself
T1 construct: biotinylated in the ELISA formats; amine-coupled to the chip in peptide kinetics
T1 sequence (looked up): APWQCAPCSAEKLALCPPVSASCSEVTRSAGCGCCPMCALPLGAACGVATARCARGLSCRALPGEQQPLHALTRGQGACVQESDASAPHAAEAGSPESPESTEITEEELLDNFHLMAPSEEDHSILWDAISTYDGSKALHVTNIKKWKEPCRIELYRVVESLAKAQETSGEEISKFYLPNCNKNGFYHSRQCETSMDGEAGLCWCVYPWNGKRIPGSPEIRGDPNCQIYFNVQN

[2] = target: T2, recombinant human IGFBP-3 (human, UniProt P17936 28-291); assay: competitive phage ELISA; the reference itself
T2 construct: biotinylated and held on a streptavidin chip in the ALS experiment

human IGFBP-1 [3] = target: T1, human IGFBP-1; assay: competitive phage ELISA
[4] = target: T2, recombinant human IGFBP-3; assay: competitive phage ELISA
human IGFBP-1 [5] = target: T1, human IGFBP-1; assay: competitive phage ELISA; remark: listed apart in the source
[6] = target: T2, recombinant human IGFBP-3; assay: competitive phage ELISA; remark: listed apart in the source
[7] = target: IGFBP-3/E3A/F49A IGF-1 binary complex (human) (UniProt P17936); assay: BIAcore, ALS dissociation from the IGFBP-3/IGF-1 complex
[8] = target: IGFBP-3/F49A IGF-1 binary complex (human) (UniProt P17936); assay: as above
human IGFBP-1 [9] = target: T1, human IGFBP-1; assay: BIAcore inhibition of IGFBP-1 binding to IGF-1
[10] = target: T2, recombinant human IGFBP-3; assay: phage ELISA on IGFBP-3 plate, competitor IGF-1
Method: The plates were then washed ten times, as above, and a solution of rabbit anti-phage antibody mixed with a goat-anti-rabbit conjugate of horseradish peroxidase was added. After an incubation of 1 hour at room temperature, the plates were developed with a chromogenic substrate, o-phenylenediamine (Sigma). The reaction was stopped with addition of ½ volume of 2.5 M H₂SO₄. Optical density at 490 nm was measured on a spectrophotometric plate reader.
In each case, the phagemid clone was grown from a single colony overnight at 37° C. in a culture volume of 5 ml. The phage particles were precipitated and resuspended in 0.5 ml of PBS buffer.

human IGFBP-1 [11] = target: T1, human IGFBP-1; assay: stated with the explant experiment

T2 sequence (P17936 28-291 limits assumed): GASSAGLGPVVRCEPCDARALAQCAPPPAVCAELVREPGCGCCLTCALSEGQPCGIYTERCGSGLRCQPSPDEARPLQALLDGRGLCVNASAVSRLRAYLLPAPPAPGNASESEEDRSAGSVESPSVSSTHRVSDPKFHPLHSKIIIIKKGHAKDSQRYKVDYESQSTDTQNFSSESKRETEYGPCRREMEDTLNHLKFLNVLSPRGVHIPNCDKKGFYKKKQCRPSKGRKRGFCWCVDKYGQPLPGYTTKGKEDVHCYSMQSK
Chain of IGFBP-3/E3A/F49A IGF-1 binary complex (human) (P17936 28-291, chain 1 of 2): as the sequence (P17936 28-291 limits assumed) above
Chain of IGFBP-3/E3A/F49A IGF-1 binary complex (human) (chain, as listed by the source F49A F49A, chain 2 of 2): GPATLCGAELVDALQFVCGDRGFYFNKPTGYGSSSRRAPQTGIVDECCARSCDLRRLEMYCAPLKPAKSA
Chain of IGFBP-3/F49A IGF-1 binary complex (human) (P17936 28-291, chain 1 of 2): as the sequence (P17936 28-291 limits assumed) above
Chain of IGFBP-3/F49A IGF-1 binary complex (human) (chain, as listed by the source F49A F49A, chain 2 of 2): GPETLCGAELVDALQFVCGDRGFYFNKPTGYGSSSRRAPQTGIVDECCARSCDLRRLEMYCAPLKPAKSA

## IGF-1 G1S-A70V on phage (from UniProt P69168 267-424) (ligand)
Human IGFBP-1 [1]
  relative IC50 (mut/G1S-A70V): 1
[2]
  relative IC50 (mut/G1S-A70V): 1
Human IGFBP-1 [3]
  IC50: 8.5 nM
[4]
  IC50: 0.5 nM
Human IGFBP-1 [5]
  IC50: 8.2 nM
[6]
  IC50: 0.75 nM

B1: human acid-labile subunit (protein, UniProt P35858 28-605, looked up)
chain: ADPGTPGEAEGPACPAACVCSYDDDADELSVFCSSRNLTRLPDGVPGGTQALWLDGNNLSSVPPAAFQNLSSLGFLNLQGGQLGSLEPQALLGLENLCHLHLERNQLRSLALGTFAHTPALASLGLSNNRLSRLEDGLFEGLGSLWDLNLGWNSLAVLPDAAFRGLGSLRELVLAGNRLAYLQPALFSGLAELRELDLSRNALRAIKANVFVQLPRLQKLYLDRNLIAAVAPGAFLGLKALRWLDLSHNRVAGLLEDTFPGLLGLRVLRLSHNAIASLRPRTFKDLHFLEELQLGHNRIRQLAERSFEGLGQLEVLTLDHNQLQEVKAGAFLGLTNVAVMNLSGNCLRNLPEQVFRGLGKLHSLHLEGSCLGRIRPHTFTGLSGLRRLFLKDNGLVGIEEQSLWGLAELLELDLTSNQLTHLPHRLFQGLGKLEYLLLSRNRLAELPADALGPLQRAFWLDVSHNRLEALPNSLLAPLGRLRYLSLRNNSLRTFTPQPPGLERLWLEGNPWDCGCPLKALRDFALQNPSAVPRFVQAICEGDDCQPPAYTYNNITCASPPEVVGLDLRDLSEAHFAPC
[7]
  koff: 0.0004 s⁻¹
[8]
  koff: 0.00042 s⁻¹

## Ac-LEWLAEKYFE (linker 2-10 via 1,5‑diaminopentane) [(i+8)A]
Human IGFBP-1 [9]
  fold potency reduction against BP1-01: > 200

B2: peptide-phage clone 4D3.12 (g8 display) (peptide)
chain: AEWAECWIAGDQLLCVGKDNGGGSGGGAEGDDPAKAAFNSLQASATEYIGYAWAMVVVIVGATIGIKLFKKFTSKAS
notes: polyvalent on M13 phage
[10]
  % inhibition of phage binding by 100 nM IGF-1: > 40%

B3: peptide-phage clone 4D3.11 (g8 display) (peptide)
chain: VAWEVCWDRHDQGYICTTDSGGGSGGGAEGDDPAKAAFNSLQASATEYIGYAWAMVVVIVGATIGIKLFKKFTSKAS
notes: polyvalent on M13 phage
[10]
  % inhibition of phage binding by 100 nM IGF-1: 5%

## CRAGPLQWLCEKYF-NH2 (disulfide 1-10 (inferred)) [BP1-16]
Human IGFBP-1 [11]
  binding result: binds

B4: peptide-phage clone 4C3.2 (g8 display) (peptide)
chain: ELDGWVCIKVGEQNLCYLAEGGGSGGGAEGDDPAKAAFNSLQASATEYIGYAWAMVVVIVGATIGIKLFKKFTSKAS
notes: polyvalent on M13 phage
[10]
  % inhibition of phage binding by 100 nM IGF-1: > 40%

B5: peptide-phage clone 4D3.8 (g8 display) (peptide)
chain: SEEVCWPVAEWYLCNILGPGGGSGGGAEGDDPAKAAFNSLQASATEYIGYAWAMVVVIVGATIGIKLFKKFTSKAS
notes: polyvalent on M13 phage
[10]
  % inhibition of phage binding by 100 nM IGF-1: > 40%

B6: peptide-phage clone 4D3.9 (g8 display) (peptide)
chain: ETVANCDCYMDLCLCYGSDRGGGSGGGAEGDDPAKAAFNSLQASATEYIGYAWAMVVVIVGATIGIKLFKKFTSKAS
notes: polyvalent on M13 phage
[10]
  % inhibition of phage binding by 100 nM IGF-1: > 40%
